The values below come from the supplement of paper PMC10567573.

This series is described as follows: protein stability index of a GFP-peptide fusion (GPS, HEK-293T) (PSI 1-6); higher = more stable.
[1] abbreviates: treatment: DMSO, c terminus: a fixed tail appended.
The mark [2] stands for this setting: treatment: MLN4924 1 uM, 8 h, c terminus: a fixed tail appended.

± gives the standard deviation.
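Further: 24-mer peptide tiles fused after GFP, lentivirally expressed, FACS-sorted into six equal bins by GFP/DsRed ratio, decoded by Illumina sequencing, PSI is the read-weighted mean bin number.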

For the sequence WEKKPFSEDVNWGYEKRNLARVPK [CHGB], the protein stability index reads like this: under setting [1], 3.38 ± 0.3; under setting [2], 3.87 ± 0.17.

Turning to WGDCSRTCGGGVQFSSRDCTRPVP [ADAMTS4], the protein stability index is, setting by setting: under setting [1], 2.9 ± 0.95; under setting [2], 2.94 ± 0.26.

Consider WIDIKQFVWYTPPTFMIAVFLPIV [STEAP1], for which the protein stability index under setting [1] amounted to 2.67 ± 0.36 and the protein stability index under setting [2] amounted to 3.39 ± 0.61.

For the sequence WLLNNLMTHQNVELFKELSINVMK [GMCL1], the protein stability index runs as follows: under setting [1], 2.28 ± 0.54; under setting [2], 2.08 ± 0.3.

For the sequence WNFEITNQSFNIVDIKPANMEELT [PPP2R2B], the protein stability index under setting [1] was 3.4 ± 0.55 and the protein stability index under setting [2] amounted to 3.13 ± 0.65.

With WPFSMDCTGTEAHISSCKLGPQVS [LOXL2], the protein stability index is, setting by setting: under setting [1], 3.02 ± 0.25; under setting [2], 3.08 ± 0.34.

Take WQAKREEEEEEEEEAEAGEEAVPE [CHGA]: the protein stability index is, setting by setting: under setting [1], 5.6 ± 0.47; under setting [2], 5.7 ± 0.22.

Turning to WQMIEQIQFIKLFGMAKIDNLLQE [HNF4A], the protein stability index under setting [1] was determined as 2.9 ± 0.7 and the protein stability index under setting [2] came to 2.33 ± 0.33.

As to YAHQPRTADEIPMEPGDIIGVAGN [FUT8], the protein stability index reads like this: under setting [1], 4.2 ± 0.24; under setting [2], 4.36 ± 0.17.

As for YANLALSGLIEIQSYPLCIYLINQ [SLC22A15], the protein stability index by setting is: under setting [1], 3.9 ± 0.46; under setting [2], 3.34 ± 0.19.

Regarding YDKNIIHKTAGKRYVYRFVCDLQS [ETS1], the protein stability index by setting is: under setting [1], 2.11 ± 0.17; under setting [2], 2.14 ± 0.17.

On to YHEAPMTRKHYQVTGYGINGTGDS [POMT2], for which the protein stability index by setting is: under setting [1], 2.97 ± 0.36; under setting [2], 3.42 ± 0.31.

Sequence YIFRVANHQKDLFRRTDGRCLIWG [DHCR7] returned a protein stability index under setting [1] of 2.77 ± 0.23 and a protein stability index under setting [2] of 2.35 ± 0.41.

For YILLVGYPPFWDEDQHKLYQQIKA [CAMK2B], the protein stability index is, setting by setting: under setting [1], 2.49 ± 0.57; under setting [2], 2.82 ± 0.56.

As for YLAYINAKSRAEAALEEESRQRQS [SMARCE1], the protein stability index reads like this: under setting [1], 3.93 ± 0.33; under setting [2], 3.75 ± 0.33.

The sequence YLDETCTCFVRDGKTYCKRDYVRL [ISL2] showed a protein stability index under setting [1] of 2.68 ± 0.084 and a protein stability index under setting [2] of 2.95 ± 0.3.

For YLHPNSYSCACLASGSVLRLVDAV [HDAC6], the protein stability index under setting [1] worked out at 2.82 ± 0.36 and the protein stability index under setting [2] was 2.32 ± 0.066.

As for YLNFIRGVVDSEDLPLNISREMLQ [HSP90AB1], the protein stability index came to 2.69 ± 0.12 under setting [1] and 3.09 ± 0.47 under setting [2].

For YMYYFQYLSKTYCVDATRETNRLG [KMT5A], the protein stability index runs as follows: under setting [1], 2.67 ± 0.47; under setting [2], 2.81 ± 0.66.

Consider YNDGVINLLEKFFEMKKGQCKDAL [SNAP91], for which the protein stability index was found to be 2.31 ± 0.3 under setting [1] and 2.34 ± 0.2 under setting [2].

With YPASIVDEPTFKVLLKTADPRYEL [ZBED1], the protein stability index by setting is: under setting [1], 2.89 ± 0.26; under setting [2], 3.27 ± 0.29.

In the case of YPVGWPPVQELPPSLRAPPPGGWP [ZMAT5], the protein stability index is 2.39 ± 0.88 under setting [1] and 2.83 ± 0.69 under setting [2].

Take YRQVPGSDPARYEFLWGPRAHAEI [MAGEA10]: the protein stability index was found to be 2.73 ± 0.24 under setting [1] and 2.91 ± 0.26 under setting [2].

For YSFVLTNRGNSAGGLQHRVTAKTA [PTPRD], the protein stability index runs as follows: under setting [1], 2.81 ± 0.29; under setting [2], 2.97 ± 0.28.

With YSLLYLEHKGWYSWVLSMLYGFLL [CLPTM1], the protein stability index turned out to be 2.18 ± 0.37 under setting [1] and 2.26 ± 0.49 under setting [2].

Sequence YTGYCWCVTPNGRPISGTAVAHKT [SMOC2] displayed a protein stability index under setting [1] of 2.73 ± 0.55 and a protein stability index under setting [2] of 2.51 ± 0.13.

On to YTSSLACHRALQDAFSGLFWQPS [MNAT1], for which the protein stability index (treatment: DMSO, c terminus: native) worked out at 2.29 ± 0.51 and the protein stability index (treatment: MLN4924 1 uM, 8 h, c terminus: native) came out at 2.01 ± 0.33.

Take YYERVLKRKTFNKVLGHVNNILIS [GDAP1]: the protein stability index came to 2.35 ± 0.35 under setting [1] and 2.64 ± 0.7 under setting [2].
